Our source for the response values is publication PMC11649929.

The target in the test is 5*MYC-HSD17B13 (Mouse) (UniProt Q8VCR2). Briefly: co-immunoprecipitation (IP: MYC) and Western blotting, band intensity. The following applies: HEK293T cells transfected with EGFP-Rab2A plasmids and MYC-HSD17B13; parent: 3.3.
UniProt Q8VCR2, sequence (Q8VCR2 whole entry): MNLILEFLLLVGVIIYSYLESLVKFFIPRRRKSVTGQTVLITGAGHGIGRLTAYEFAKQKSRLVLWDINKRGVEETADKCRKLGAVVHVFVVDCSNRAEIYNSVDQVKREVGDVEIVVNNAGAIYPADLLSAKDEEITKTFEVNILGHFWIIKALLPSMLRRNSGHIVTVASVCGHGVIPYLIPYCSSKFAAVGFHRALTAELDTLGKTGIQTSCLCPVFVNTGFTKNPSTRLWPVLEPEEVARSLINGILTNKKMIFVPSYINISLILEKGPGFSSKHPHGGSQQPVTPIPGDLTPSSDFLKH

In the case of “Rab2A, wild type, expressed from a plasmid in HEK293T cells (tag not told) (from UniProt P53994) Q32...E42-A...A”, the response was 0.9.
